Measurements taken from patent US7115267.

Legend:
mu opiate receptor = assay: cell-based or functional assay
[1] = biological target: p141-ubiquitin fusion protein (human) (UniProt P0CG47); assay: cell-based or functional assay
Chain of p141-ubiquitin fusion protein (human) (P0CG47 other isoform, or with tags, fused parts or gaps): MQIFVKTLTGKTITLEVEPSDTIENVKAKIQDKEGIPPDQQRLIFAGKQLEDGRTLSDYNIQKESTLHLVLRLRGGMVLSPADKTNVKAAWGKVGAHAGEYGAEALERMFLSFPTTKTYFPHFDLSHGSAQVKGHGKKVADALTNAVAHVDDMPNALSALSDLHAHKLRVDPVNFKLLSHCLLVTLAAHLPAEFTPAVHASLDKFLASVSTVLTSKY

digestion of the ubiquitin fusion protein in vivo (co-expression in bacteria) [1] [%] | Substance | % Kill in the CFU-MIX cycling assay, Human Alpha (100 ng/ml) + CTOP 10^-7 M (0 without CTOP; control 42; CTOP alone 36) (mu opiate receptor) [%]
 | Purified human hemoglobin alpha chain (from UniProt P69905 2-142) | 20
70 | UBP1 ubiquinase (from UniProt P25037 1-809) (enzyme) | 
